Measurements reported in the supplement of paper PMC9732359.
± gives the uncertainty stated by the source.

Assay: protein stability index of a GFP-peptide fusion (yeast GPS) (PSI 1-4); higher = more stable; sorted into four equal gates, so the index is relative within each strain
Outline: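 Mid-log yeast cultures in leucine-free medium, carrying a pooled plasmid library, were sorted into four equal gates by their GFP/Cherry fluorescence ratio. Each plasmid expressed Cherry along with GFP fused upstream of a tiled 17-residue yeast protein peptide. Plasmids recovered from each gate were PCR-amplified and Illumina-sequenced, with reads assigned to strains by barcodes. The protein stability index was obtained by summing each gate's read frequency weighted by its gate number.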

Sequence | protein stability index (doa10∆) | protein stability index (pdr5∆) | protein stability index (ubr1∆) | protein stability index (san1∆)
FISNLPNVSDKYYLEES [NUT1] | 2.16 ± 0.098 | 1.49 ± 0.094 | 1.27 ± 0.076 | –
VYAQQSTVQTPITASMA [PGD1] | 1.59 ± 0.056 | 1.95 ± 0.079 | 1.86 ± 0.042 | 1.51 ± 0.09
NMMEHWDYLQLTVAMYI [RPO31] | 2.08 ± 0.061 | 2.2 ± 0.063 | 1.85 ± 0.063 | 2.4 ± 0.15
DSLKKLLPQWDDDQIES [ARP9] | 3.32 ± 0.14 | 3.17 ± 0.087 | 3.17 ± 0.081 | 2.83 ± 0.071
LEKDAADCQAELTKTKS [YIL149C/MLP2] | 2.94 ± 0.13 | 2.76 ± 0.26 | 2.87 ± 0.1 | 2.75 ± 0.18
QVQGQQQAQSFVGKKNT [SSN3] | 2.55 ± 0.053 | 2.69 ± 0.048 | 2.57 ± 0.041 | 2.57 ± 0.052
VSQQPLSRGYTCPGLSL [ECM29] | 3.02 ± 0.056 | 2.97 ± 0.04 | 2.93 ± 0.044 | 3.02 ± 0.051
ARIKDAFITQLESSITD [YJL039C/NUP192] | 2.83 ± 0.11 | 2.25 ± 0.1 | – | 1.14 ± 0.11
SIGYETELKKITDKTIK [IRR1] | 3.06 ± 0.07 | 3.12 ± 0.066 | 3 ± 0.082 | 2.99 ± 0.062
SRPDILSKIKFPESIWK [YCG1] | 2.77 ± 0.049 | 2.04 ± 0.037 | 2.06 ± 0.029 | 1.92 ± 0.058
LRSNKCILYDADESKMA [RET1] | – | 3.07 ± 0.18 | – | –
EVTKGEKTYTKAPKIQR [RPS6A] | 3.17 ± 0.18 | 3.19 ± 0.14 | 3.53 ± 0.13 | –
EDDTQIVTGNLVLDLLT [IRR1] | 2.12 ± 0.055 | 2.83 ± 0.047 | 2.26 ± 0.037 | 2.26 ± 0.085
QDHFHRLNYLYQISAYQ [RPR2] | 2 ± 0.041 | 2.43 ± 0.04 | 2.43 ± 0.026 | 2.42 ± 0.044
VSSSLYERRFGPYFVGP [PUP3] | 2.79 ± 0.13 | 2.88 ± 0.16 | 2.95 ± 0.095 | 2.62 ± 0.13
TWSLILNECLKTIQINN [YML031W/NDC1] | 1.88 ± 0.057 | 1.62 ± 0.058 | 1.86 ± 0.042 | 1.3 ± 0.1
NTAAALVSLLDENDSKK [YAR002W/NUP60] | 3.13 ± 0.097 | 2.95 ± 0.12 | 3.01 ± 0.099 | 3.01 ± 0.087
LDRRFEIFFKKDSLWQS [FAS1] | 3.15 ± 0.13 | 3.16 ± 0.11 | 2.91 ± 0.061 | 2.52 ± 0.26
FKATHILDFGPGGASGL [FAS1] | 2.75 ± 0.08 | 3.43 ± 0.14 | 2.96 ± 0.21 | –
APGTEAGIVPVSANTPK [SWI1] | 3.06 ± 0.053 | 2.94 ± 0.065 | 3.18 ± 0.054 | 3.08 ± 0.053
EVAVPDRVAKVLTYPEK [RPO31] | 2.97 ± 0.075 | 3.06 ± 0.1 | 3.23 ± 0.078 | 2.88 ± 0.078
SNGIFYGPSFTKRESLN [SIR2] | 2.85 ± 0.065 | 2.83 ± 0.045 | 3.07 ± 0.039 | 2.65 ± 0.056
SKLNELKKELKLLAKEL [SMC2] | 2.92 ± 0.11 | 2.9 ± 0.12 | 3.09 ± 0.15 | –
SVMPPNEVYSAYVVNDT [DLS1] | 2.77 ± 0.087 | 2.95 ± 0.13 | 3.04 ± 0.082 | 1.89 ± 0.28
DIEQLEYSRDCFCEDHC [RPB3] | 3.1 ± 0.064 | 2.54 ± 0.052 | 2.61 ± 0.065 | 2.92 ± 0.066

Sequence | protein stability index (doa10∆) | protein stability index (pdr5∆) | protein stability index (ubr1∆) | protein stability index (san1∆)
DSFSVPNRLVKELQYDN [PRE2] | 3.02 ± 0.18 | 2.94 ± 0.24 | 3.37 ± 0.29 | 3.09 ± 0.11
SEYSSEASNTPIEHQFN [PRE7] | 3.16 ± 0.078 | 3.21 ± 0.072 | 3.3 ± 0.1 | 3 ± 0.036
LRSTIANLLQINVDNDP [YML103C/NUP188] | 2.21 ± 0.1 | 1.4 ± 0.13 | 1.15 ± 0.15 | –
KTAKEVAGAIRAGIIIA [RPS2] | 2.49 ± 0.14 | 3.16 ± 0.17 | 3.07 ± 0.1 | 2.69 ± 0.24
LRRVEERFTKSKTLSLI [FAS1] | 2.31 ± 0.076 | 2.09 ± 0.059 | 1.79 ± 0.037 | 2.17 ± 0.087
SFVHGVVGQLFQIDNDN [SMC2] | 3.11 ± 0.16 | 3.13 ± 0.12 | 3.25 ± 0.13 | 3.13 ± 0.068
LFEQIGIRIKGKIVGFD [SME1] | 1.92 ± 0.12 | 1.85 ± 0.1 | 1.89 ± 0.096 | 1.48 ± 0.2
KTKAMSLSIEENIPVAL [POP1] | 2.92 ± 0.079 | 3.01 ± 0.099 | 3.17 ± 0.092 | 3.22 ± 0.1
ATTGGGLFGNKPNNTAN [YGL172W/NUP49] | 3.62 ± 0.25 | 3.29 ± 0.21 | 3.54 ± 0.18 | 3.66 ± 0.083
TGMEPGKTSFFQALGVP [RPP0] | 2.89 ± 0.13 | 3.2 ± 0.098 | 3.17 ± 0.073 | 3.23 ± 0.13
KPFLKKTQEYYTQYTND [CDC53] | 3.02 ± 0.061 | 3.12 ± 0.053 | 3.01 ± 0.046 | 3.07 ± 0.044
KNAVVRSKFGGDFLDFQ [ARP7] | 3 ± 0.13 | 2.57 ± 0.12 | 3.21 ± 0.083 | 3.31 ± 0.094
LTTAREHHSSVKYASPN [FAS2] | 3.02 ± 0.065 | 3.11 ± 0.057 | 3.06 ± 0.04 | 3.04 ± 0.041
KDVLAQTSVTTNFNEIT [SWP82] | 2.3 ± 0.079 | 2.75 ± 0.06 | 2.76 ± 0.045 | 2.7 ± 0.071
KVCECVCMHCGKLLLDE [RPO21] | 2.96 ± 0.082 | 2.97 ± 0.073 | 2.96 ± 0.047 | 2.88 ± 0.087
DNGGTILGIAGEDFAVL [PRE7] | 3.46 ± 0.099 | 3.08 ± 0.13 | 3.47 ± 0.052 | 3.34 ± 0.14
PLVYRHELITNIGETAG [RPB9] | 2.78 ± 0.046 | 2.88 ± 0.035 | 3.02 ± 0.036 | 3.04 ± 0.042
LWELALAFIPNILALNL [YML031W/NDC1] | 2.01 ± 0.069 | 1.86 ± 0.048 | 1.34 ± 0.061 | 1.85 ± 0.083
TLIDLVKHSPGAIKPFT [ECM29] | 2.16 ± 0.2 | 2.93 ± 0.15 | 2.92 ± 0.099 | 1.95 ± 0.2
VGEKLVVVVLEEPSASI [SIR3] | 3.07 ± 0.076 | 2.94 ± 0.087 | 3.1 ± 0.13 | 3.2 ± 0.052
FYRGNYTDFENTFQKTV [FAS1] | 2.41 ± 0.074 | 2.63 ± 0.062 | 2.67 ± 0.056 | 2.34 ± 0.1
APLAKVVFRDPYKYRLR [RPL2A] | 2.93 ± 0.098 | 3.16 ± 0.1 | 3.13 ± 0.062 | 3.07 ± 0.06
PLLDIVLKADRSWNEPS [YML103C/NUP188] | 2.02 ± 0.15 | 2.86 ± 0.26 | 3.12 ± 0.11 | –
SVINVSAQRDRRYRKRN [RPS17B] | – | 3.04 ± 0.25 | – | 3.23 ± 0.24
